The results in this text go back to the supplement of paper PMC12455559.

± gives the standard deviation of the averaged measurements. Some results are limits rather than exact numbers.

Series [1] is described as follows: melting temperature (DSF); higher = more thermostable. The method, boiled down: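 Values are melting temperatures from differential scanning fluorimetry. Candidate enzymes were expressed in E. coli C41(DE3), purified on nickel beads and freed by SUMO protease cleavage. In sealed PCR plates on a Bio-Rad CFX96, 45 μL enzyme (0 to 0.3 mg/mL) was combined with 5 μL 5X Sypro Orange. Fluorescence was recorded from 25 °C for 250 cycles, rising 0.3 °C per cycle at a ramp of 0.3 °C/s.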

The nature of series [2]: PET hydrolysis, aromatic products released after 48 h (umol product/mg enzyme); higher = more PET depolymerization activity. The method, boiled down:
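Sealed plates containing 3.5 mg PET (amorphous film or crystalline powder), 450 μL buffer and 5 μg (50 μL) tagless candidate enzyme were held 48 h at 40 or 60 °C with no shaking. Supernatants were then read at 260 and 280 nm against buffer blanks. The aromatic product detected this way, per mg enzyme, defines PET hydrolysis activity.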

The nature of series [3]: purified protein yield per well (BCA); higher = higher soluble expression. The procedure, abridged: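 Candidate enzymes were expressed in E. coli C41(DE3) in 2 mL autoinduction cultures with 100 µg/mL kanamycin, at 37 °C for 2 h and then 18 °C for 40 h. Cells were lysed, and protein was bound to Ni-charged magnetic beads and released by SUMO protease cleavage on an OT-2 robot. The read-out is purified protein yield per well, measured with the Pierce Rapid Gold BCA kit. Values below 25 ug (0.1 mg/mL) are below the detection threshold.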

[4] abbreviates: substrate: aFilm, 40 °C, pH 4.5.
Where [5] appears, read: substrate: aFilm, 40 °C, pH 5.5.
[6] abbreviates: substrate: aFilm, 40 °C, pH 6.5.
Where [7] appears, read: substrate: aFilm, 40 °C, pH 7.5.
The mark [8] stands for this setting: substrate: aFilm, 60 °C, pH 4.5.
[9] abbreviates: substrate: aFilm, 60 °C, pH 5.5.
Where [10] appears, read: substrate: aFilm, 60 °C, pH 6.5.
Where [11] appears, read: substrate: aFilm, 60 °C, pH 7.5.
The mark [12] stands for this setting: substrate: cryPow, 40 °C, pH 4.5.
The mark [13] stands for this setting: substrate: cryPow, 40 °C, pH 5.5.
[14] abbreviates: substrate: cryPow, 40 °C, pH 6.5.
Setting [15] is: substrate: cryPow, 40 °C, pH 7.5.
Where [16] appears, read: substrate: cryPow, 60 °C, pH 4.5.
Where [17] appears, read: substrate: cryPow, 60 °C, pH 5.5.
Setting [18] is: substrate: cryPow, 60 °C, pH 6.5.
The mark [19] stands for this setting: substrate: cryPow, 60 °C, pH 7.5.

In turn, “ADNPYQRGPDPTQSSVTAVNGPFANTSVSVPTGYGFNGGRIYYPTDTSQGTFGAIAISPGYTALFSAELAWMGPWLASHGFVVIGIETNSRNDFDTARGTQLLAALDYLTQQSPVRDRVDPTRLAVAGHSMGGGGALSAAMRRPSLKAVVGIAPYSPSSNLANDRVPTMILSGQADTVVTPSYATGLYNSLPSTTESVYLEVAGADHGFMVGRPNPVMVRTMLPFVKMFVDNDARYSQFLCPLLDSSGVVTYRSTCPLLPTTPTTPTPTTPGPTTPGPTPTVSPSVPPTSAGEIVGTQSGRCIDVPNASRNNGTRVQLYDCNRQTNQTWTYTSGKQLQVYGNMCLDAAGTGNGAAVQIYSCHSQTNQQWNINANGTISNVQSGRCLDAWSTANGAQIQLYDCHGQTNQQFRLVARA [ESM075]” yielded a melting temperature in series [1] of 62.2 C. The PET hydrolysis in series [2] (setting [4]) is below 3; in series [2] (setting [5]) it was 4; in series [2] (setting [6]), below 3; in series [2] (setting [7]) it was below 3; in series [2] (setting [8]), below 3; in series [2] (setting [9]), below 3. For the same sequence, the PET hydrolysis is below 3 in series [2] (setting [10]); below 3 in series [2] (setting [11]); 12.5 ± 2.1 in series [2] (setting [12]); 21 ± 1.4 in series [2] (setting [13]); 23 ± 1.4 in series [2] (setting [14]); 7 in series [2] (setting [15]). Besides, the PET hydrolysis in series [2] (setting [16]) was below 3; in series [2] (setting [17]), 1.5 ± 2.1; in series [2] (setting [18]) it was below 3; in series [2] (setting [19]), below 3. Also, the “purified protein yield per well” value in series [3] came to 233 µg.
Sequence “ADNPYQRGPDPTRASVAAENGPFANTSVSAPTGYGFNGGRIYYPTDTSQGTFGAIAISPGYTALFSAELAWMGPWLASHGFVVIGIETNSRNDFDTARGTQLLAALDYLTQQSPVRDRIDPNRLAVSGHSMGGGGALSAAMRRSSLKAVVGITPYSPSSNLANVQVPAMVISGQADTVVTPSYALGLYNSLPASTESAYLEVAGGDHGFMVGRSNPVLIRTMLPFVKMFVDNDARYSQFLCPLLDNSGVVTYRSTCPLLPPPTATPTPTGTPTPTPTPTVSPTTPPNSANRIVGVQSGRCIDVPNASRDNGTRVQLYDCHGQSNQSWTYTASKQLRVYGDMCLDAGGSGNGAGIQIYSCHSQTNQQWNVNSNGTISGVQSGRCLDVWSTSNGAQVQLYDCHGQTNQQFNLVPLT [TEP167]” showed a melting temperature in series [1] of 57.1 C. Also, the PET hydrolysis in series [2] (setting [12]), in series [2] (setting [13]), in series [2] (setting [14]), in series [2] (setting [15]), in series [2] (setting [16]) and in series [2] (setting [17]) was below 3 throughout. The PET hydrolysis in series [2] (setting [18]) and in series [2] (setting [19]) was below 3 each time. In addition, the “purified protein yield per well” value in series [3] was 180 µg.
“ADNPYQRGPDPTRASVAAVNGPFANTSVSVPTGYGFNGGRIYYPTDTSQGTFGAIAISPGYTALFSAELAWMGPWLASHGFVVIGIETNSRNDFDTARGTQLLAALDYLTQQSPVRDRVDPNRLAVSGHSMGGGGALSAAIRRSSLKAAVGITPYSPSQNLANDRVPTMVISGQADTVVTPSYALNLYNSLPASTESVYLEVAGGDHGFMVGRSNPVLIRTMLPFLKMFVDNDSRYSQFLCPLLDSSGVVTYRSTCPLLPTDPTTPPTGSPTPTPTTPPPSGSANEIIGTQSGRCVDVPNASRNNGTRVQLYDCNKQTNQSWTYTSNRQLRVYDNMCLDAAGSGNGAAIQIYTCHSGTNQQWNVNSNGTITGVQSGRCLDVWSSNNGAQIQLYDCHGQPNQQFRLAPLA [TEP010]”: the melting temperature in series [1] came out at 62.8 C. In addition, the PET hydrolysis in series [2] (setting [4]), in series [2] (setting [5]), in series [2] (setting [6]), in series [2] (setting [7]), in series [2] (setting [8]) and in series [2] (setting [9]) was below 3 in each case. The PET hydrolysis in series [2] (setting [10]) is below 3; in series [2] (setting [11]) it was below 3; in series [2] (setting [12]), 13.5 ± 2.1; in series [2] (setting [13]), 24; in series [2] (setting [14]), 41 ± 1.4; in series [2] (setting [15]), 27 ± 4.2. Further, the PET hydrolysis in series [2] (setting [16]) was below 3; in series [2] (setting [17]), 6 ± 1.4; in series [2] (setting [18]), 5 ± 1.4; in series [2] (setting [19]), 2 ± 2.8. Also, the “purified protein yield per well” value in series [3] came to 269 µg.
“ADNPYQRGPDPTRASVAAVNGPFVNTSVSVPTGYGFNGGRIYYPTDTSQGTFGAIAISPGYTALFSAELAWMGPWLASHGFVVIGIETNSRNDFDTARGTQLLAALDYLTQQSPVRDRVDPNRLAVSGHSMGGGGALSAAIRRSSLKAAVGITPYSPSQNLANDRVPTMVISGQADTVVTPSYALGLYNSLPASTESVYLEVAGGDHGFMVGRSNPVLIRTMLPFLKMFVDNDSRYSQFLCPLLDSSGVVTYRSTCPLLPTNPTTPPPTGTPTPTPTSTPTPTPTPTTPPPSGSANE [ESM091]” showed a melting temperature in series [1] of 62.5 C. The PET hydrolysis in series [2] (setting [4]), in series [2] (setting [5]), in series [2] (setting [6]), in series [2] (setting [7]), in series [2] (setting [8]) and in series [2] (setting [9]) was below 3 each time. In addition, the PET hydrolysis in series [2] (setting [10]) is below 3; in series [2] (setting [11]) it was below 3; in series [2] (setting [12]), 13.5 ± 0.71; in series [2] (setting [13]) it was 28 ± 1.4; in series [2] (setting [14]), 10; in series [2] (setting [15]) it was below 3. Further, the PET hydrolysis in series [2] (setting [16]), in series [2] (setting [17]), in series [2] (setting [18]) and in series [2] (setting [19]) was below 3 each time. The “purified protein yield per well” value in series [3] is 336 µg.
